{"source": "patent US12559545", "key": {"[1]": {"target": "HeV-RBP head domain (residues 185-604), recombinant soluble (Hendra virus) (UniProt O89343)", "assay": "BLI on HeV RBP head domain, after first mAb HENV-26"}, "[2]": {"target": "HeV-RBP head domain (residues 185-604), recombinant soluble (Hendra virus) (UniProt O89343)", "assay": "BLI on HeV RBP head domain, after first mAb HENV-19"}, "[3]": {"target": "HeV-RBP head domain (residues 185-604), recombinant soluble (Hendra virus) (UniProt O89343)", "assay": "BLI on HeV RBP head domain, after first mAb HENV-43"}, "[4]": {"target": "full-length NiVB-RBP expressed on the surface of transfected cells (Nipah virus, strain Bangladesh) (UniProt Q9IH62)"}, "[5]": {"target": "full-length NiVM-RBP expressed on the surface of transfected cells (Nipah virus, strain Malaysia) (UniProt Q9IH62)"}, "[6]": {"target": "full-length HeV-RBP expressed on the surface of transfected cells (Hendra virus) (UniProt O89343)"}, "[7]": {"target": "HeV-RBP head domain (residues 185-604), recombinant soluble (Hendra virus) (UniProt O89343)", "assay": "BLI on HeV RBP head domain, after first mAb HENV-1"}, "[8]": {"target": "NiVB RBP on live Nipah virus Bangladesh (Nipah virus, strain Bangladesh) (UniProt Q9IH62)", "assay": "cell-based or functional assay"}, "[9]": {"target": "HeV RBP on live Hendra virus (Hendra virus) (UniProt O89343)", "assay": "cell-based or functional assay"}, "[10]": {"target": "HeV-RBP head domain (residues 185-604), recombinant soluble (Hendra virus) (UniProt O89343)", "assay": "BLI on HeV RBP head domain, after first mAb HENV-9"}, "[11]": {"target": "NiVM-RBP head domain (residues 183-602), recombinant soluble (Nipah virus, strain Malaysia) (UniProt Q9IH62)", "assay": "ELISA, RBP head domain coated on plate, hybridoma IgG"}, "[12]": {"target": "HeV-RBP head domain (residues 185-604), recombinant soluble (Hendra virus) (UniProt O89343)", "assay": "ELISA, RBP head domain coated on plate, hybridoma IgG"}, "[13]": {"target": "NiVB-RBP head domain (residues 185-602), recombinant soluble (Nipah virus, strain Bangladesh) (UniProt Q9IH62)", "assay": "ELISA, RBP head domain coated on plate, hybridoma IgG"}, "[14]": {"target": "HeV-RBP head domain (residues 185-604), recombinant soluble (Hendra virus) (UniProt O89343)", "assay": "BLI on HeV RBP head domain, after first mAb HENV-21"}, "[15]": {"target": "HeV-RBP head domain (residues 185-604), recombinant soluble (Hendra virus) (UniProt O89343)", "assay": "BLI on HeV RBP head domain, after first mAb HENV-32"}, "[16]": {"target": "HeV-RBP head domain (residues 185-604), recombinant soluble (Hendra virus) (UniProt O89343)", "assay": "BLI on HeV RBP head domain, after first mAb HENV-2"}, "[17]": {"target": "HeV-RBP head domain (residues 185-604), recombinant soluble (Hendra virus) (UniProt O89343)", "assay": "BLI on HeV RBP head domain, after first mAb HENV-10"}, "[18]": {"target": "HeV-RBP head domain (residues 185-604), recombinant soluble (Hendra virus) (UniProt O89343)", "assay": "BLI on HeV RBP head domain, after first mAb HENV-18"}}}
{"substance": "HENV-26 (antibody)", "values": [{"measurement": "% of signal of second mAb alone", "setting": "[1]", "result": -5, "unit": "%"}, {"measurement": "% of signal of second mAb alone", "setting": "[2]", "result": 91, "unit": "%"}, {"measurement": "% of signal of second mAb alone", "setting": "[3]", "result": 109, "unit": "%"}, {"measurement": "EC50", "setting": "[4]", "result": 0.326, "unit": "µg/mL"}, {"measurement": "EC50", "setting": "[5]", "result": 0.326, "unit": "µg/mL"}, {"measurement": "EC50", "setting": "[6]", "result": 0.325, "unit": "µg/mL"}, {"measurement": "% of signal of second mAb alone", "setting": "[7]", "result": 97, "unit": "%"}, {"measurement": "Area under the curve (neutralization)", "setting": "[8]", "result": 289}, {"measurement": "IC50, plaque reduction neutralization of live virus", "setting": "[8]", "result": 0.03, "unit": "µg/mL"}, {"measurement": "IC80, plaque reduction neutralization of live virus", "setting": "[8]", "result": 0.12, "unit": "µg/mL"}, {"measurement": "Max % Inhibition (neutralization)", "setting": "[8]", "result": 100, "unit": "%"}, {"measurement": "Area under the curve (neutralization)", "setting": "[9]", "result": 281}, {"measurement": "IC50, plaque reduction neutralization of live virus", "setting": "[9]", "result": 0.07, "unit": "µg/mL"}, {"measurement": "IC80, plaque reduction neutralization of live virus", "setting": "[9]", "result": 0.19, "unit": "µg/mL"}, {"measurement": "Max % Inhibition (neutralization)", "setting": "[9]", "result": 100, "unit": "%"}, {"measurement": "% of signal of second mAb alone", "setting": "[10]", "result": 97, "unit": "%"}, {"measurement": "Area under the curve", "setting": "[11]", "result": 11}, {"measurement": "EC50", "setting": "[11]", "result": 0.07, "unit": "µg/mL"}, {"measurement": "Area under the curve", "setting": "[12]", "result": 5.39}, {"measurement": "EC50", "setting": "[12]", "result": 0.14, "unit": "µg/mL"}, {"measurement": "Area under the curve", "setting": "[13]", "result": 10.5}, {"measurement": "EC50", "setting": "[13]", "result": 0.09, "unit": "µg/mL"}, {"measurement": "% of signal of second mAb alone", "setting": "[14]", "result": 99, "unit": "%"}, {"measurement": "% of signal of second mAb alone", "setting": "[15]", "result": 100, "unit": "%"}, {"measurement": "% of signal of second mAb alone", "setting": "[16]", "result": 97, "unit": "%"}, {"measurement": "% of signal of second mAb alone", "setting": "[17]", "result": 100, "unit": "%"}, {"measurement": "% of signal of second mAb alone", "setting": "[18]", "result": 91, "unit": "%"}]}
